Publication PMC7497631, “Role of Membrane Tension Sensitive Endocytosis and Rho GTPases in the Uptake of the Alzheimer’s Disease Peptide Aβ(1-42)” (ACS Chemical Neuroscience, 2020)

How the values were obtained:
[1] = test system: SH-SY5Y cells; conditions: cited from earlier work; for internalization in presence of inhibitors of actin polymerization: SH-SY5Y cells
Text: Rho GTPases are important regulators of CIE (Figure 1).[30],[41] […] Since Cdc42 (and other Rho GTPases) regulate the actin cytoskeleton,[74] this would be consistent with our previously published result that inhibitors of actin polymerization reduced Aβ(1-40) and Aβ(1-42) but not Trf internalization in SH-SY5Y cells.[13] To f ... || We repeated this set of experiments, exploring also the Rho GTPases Rac1 and RhoA. Overexpression of EGFP-tagged Rac1 (DA Q61L, WT, and DN T17N) induced lamellipodia-like morphologies in transfected cells as expected from the literature.[74] […] The latter result is contrasting observations by ... || We report that Aβ(1-42) uptake into SH-SY5Y cells is sensitive to osmotic pressure-induced alterations in membrane tension, which points to the involvement of CLICs or macropinocytosis. Importantly, Aβ(1-42) behaves distinctively different than the CME-cargo Trf, but also dextran, which is an unspecific fluid-phase endocytosis marker.

[2] = test system: SH-SY5Y cells; assay: Cellular uptake quantified by flow cytometry during changes in membrane tension; format: cell-based, human; conditions: for cellular uptake during the recovery phase relative to uptake in isotonic media: 2 μM HF488-labeled Aβ(1-42) or 250 μg/mL AF647-labeled dextran 10 kDa, 10 min in isotonic medium after 10 min hypotonic (75% MQ), serum-free medium + 2% B-27, flow cytometry mean fluorescence, N = 8, n = 3–4; for effect of hypertonic media on uptake: addition of 100 mM NaCl to the culture medium, 2 μM HF488-Aβ(1-42), 250 μg/mL AF647-dextran 10 kDa, 10 min, flow cytometry, N = 4, n = 3–4
Text: Flow cytometry was used for quantification of cellular uptake.

[3] = test system: SH-SY5Y cells; assay: Live cell confocal microscopy of uptake during changes in membrane tension; conditions: 2 μM HF488-Aβ(1-42); for internalization during hypotonic conditions: 10 min in hypotonic medium (75% MQ water, 25% cell culture medium); for internalization during hypotonic conditions / internalization during recovery (re-exposure to isotonic conditions): 250 μg/mL AF647-dextran 10 kDa or 5 μg/mL AF488-Trf; for internalization during recovery (re-exposure to isotonic conditions): 10 min in isotonic medium after 10 min hypotonic (75% MQ); for internalization under isotonic conditions: 10 min in isotonic medium, 250 μg/mL AF647-dextran 10 kDa
Experimental: SH-SY5Y cells were incubated with Aβ(1-42), Trf, and dextran 10 kDa while exposed to changes in membrane tension and analyzed by confocal microscopy and flow cytometry. For uptake at isotonic conditions, the cells were washed 1× with serum-free medium, incubated with either 2 μM HF488-labeled Aβ(1-42), 5 μg/mL AF488-labeled Trf, or 250 μg/mL AF647-labeled dextran 10 kDa in serum-free medium with the addition of 2% B-27 for 10 min, washed 1× with serum free medium for microscopy, or 3×/2 min on ice with either ice-cold serum-free medium (Aβ(1-42) and dextran) or acidic buffer (0.1 M glycine-HCl buffer pH 2.5 with 150 mM NaCl; Trf)[80] and harvested for analysis by flow cytometry. […] Lastly, cells analyzed for uptake at recovery conditions were first pretreated with isotonic medium for 10 min followed by treatment in hypotonic medium for 10 min, whereupon they were exposed to the peptides and dextran in isotonic medium for 10 min.

[4] = test system: SH-SY5Y cells; assay: Cellular uptake by flow cytometry in cells transfected with EGFP-tagged Rho GTPases (Cdc42, Rac1, RhoA); conditions: for uptake on overexpression of DA EGFP-Cdc42 Q61L relative to nontransfected cells / uptake on overexpression of WT or DN EGFP-Cdc42 relative to nontransfected cells: ~24 h post-transfection; for uptake on overexpression of DA EGFP-Cdc42 Q61L relative to nontransfected cells: 1 μM HF647-Aβ(1-42) 1 h, 5 μg/mL AF647-Trf 5 min (N = 3, n = 4) or 125 μg/ml AF647-dextran 10 kDa 1 h (n = 4); for uptake on overexpression of WT or DN EGFP-Cdc42 relative to nontransfected cells / uptake on overexpression of all variants of EGFP-tagged RhoA (DA Q63L, WT, DN T19N) relative to nontransfected cells: 1 μM HF647-Aβ(1-42) 1 h or 5 μg/mL AF647-Trf 5 min; for uptake on overexpression of EGFP-tagged Rac1 (DA Q61L, WT, DN T17N) relative to nontransfected cells: 1 μM HF647-Aβ(1-42) 1 h (N = 3, n = 4) or 125 μg/ml AF647-dextran 10 kDa 1 h (n = 4); for uptake on overexpression of all variants of EGFP-tagged RhoA (DA Q63L, WT, DN T19N) relative to nontransfected cells: ~30 h post-transfection, N = 4, n = 4
Experimental: SH-SY5Y cells were passaged 2 days prior to transfection, grown to ∼70% confluency, and transfected with plasmids encoding for Rho GTPases (EGFP-tagged DA, WT, and DN variants of Cdc42, Rac1, and RhoA; see the above section Reagents) by electroporation using a Neon Transfection System (Invitrogen, Carlsbad, CA), following the protocol provided by the manufacturer and applying a single pulse of 1 100 V with a pulse width of 50 ms. The cells were transfected using 1 μg of plasmid DNA/100 000 cells in a 10 μL Neon Tip or 10 μg of plasmid DNA/10^6 cells in a 100 μL Neon Tip and plated immediately after. Based on the initial experiments, the analysis was set to ∼24 h, ∼27 h, and ∼30 h post-transfection for Cdc42, Rac1, and RhoA, respectively, by evaluating the time it took until the cells expressed the proteins and adapted the expected morphologies.
Flow cytometry was used for quantification of cellular uptake. […] All samples were kept on ice until they were analyzed on a Guava EasyCyte 8HT (Millipore, Darmstadt, Germany) that automatically retrieves samples from a 96-well plate. In order to exclude effects due to difference in delay time, we used mixed order of analysis, loading only a few samples at a time with the remaining samples kept on ice. Only the central cell cluster on the forward/side scatter (FSC/SSC) dot plot was analyzed, and for each sample 5 000 cells from within the gate were counted. […] The mean cellular uptake or level of Rho GTPase expression was estimated as the average fluorescence intensity of all cells within the gate. The mean cellular uptake was baseline corrected by subtracting the signal recorded for untreated cells. Each cell treatment was performed in three or four technical replicates (n = 3–4) and repeated on at least two separate occasions (N ≥ 2).
Statistical analysis was performed by matched sample ANOVA using GraphPad Prism software (GraphPad, San Diego, CA) on data that had been normalized so that the uptake in nontransfected cells was 100% for the individual experiments. Matched sample ANOVA was followed by multiple comparisons with the Bonferroni posthoc test to test for differences in mean peptide uptake between nontransfected cells and uptake at the different transfection efficiencies. This means that the reported individual p-values have been adjusted for the number of comparisons that were relevant to the experiment.

| Molecule | effect of macropinocytosis inhibitor on the uptake of Aβ(1-40) and Aβ(1-42) [1] | internalization in presence of inhibitors of actin polymerization [1] | cellular uptake during the recovery phase relative to uptake in isotonic media [2] | effect of hypertonic media on uptake [2] | internalization during hypotonic conditions [3] | internalization during recovery (re-exposure to isotonic conditions) [3] | internalization under isotonic conditions [3] | uptake on overexpression of DA EGFP-Cdc42 Q61L relative to nontransfected cells [4] | uptake on overexpression of WT or DN EGFP-Cdc42 relative to nontransfected cells ([4]; N = 3, n = 4) | uptake on overexpression of EGFP-tagged Rac1 (DA Q61L, WT, DN T17N) relative to nontransfected cells ([4]; ~27 h post-transfection) | uptake on overexpression of all variants of EGFP-tagged RhoA (DA Q63L, WT, DN T19N) relative to nontransfected cells [4] | other results |
| --- | --- | --- | --- | --- | --- | --- | --- | --- | --- | --- | --- | --- |
| Oc1ccc2ccccc2c1SSc1c(O)ccc2ccccc12 [IPA-3] | reductions | – | – | – | – | – | – | – | – | – | – | – |
| COC[C@H]1OC(=O)c2coc3c2[C@@]1(C)C1=C(C3=O)[C@@H]2CCC(=O)[C@@]2(C)C[C@H]1OC(C)=O [wortmannin] | reductions | – | – | – | – | – | – | – | – | – | – | – |
| Aβ(1-40): Amyloid-β isoform; uptake results quoted from the authors' earlier work | – | reduced | – | – | – | – | – | – | – | – | – | – |
| Aβ(1-42): Synthetic Aβ(1-42) peptide, conjugated to the HiLyte Fluor HF488 or HF647 at the N-terminus, from Anaspec; applied in highly monomeric form | – | reduced | doubles | did not increase | little or no internalization | resumed to internalize | formation of small endosomal vesicles containing Aβ(1-42) was observed | reduced | no effect | None of the Rac1 variants had any effect | reduced | internalization by NIH-3T3 fibroblasts compared with CHO and SH-SY5Y [1]: more |
| Trf: AlexaFluor488- and AlexaFluor647-labeled Transferrin, ligand of clathrin-mediated endocytosis | – | not | – | – | blocked | remained low | – | reduced | no effect | – | reduced | uptake in cells with the highest concentration of WT and DN Rac1 ([4]; ~27 h post-transfection, 5 μg/mL AF488-labeled Trf 5 min, high gate, N = 3, n = 4): reduction; uptake in cells with medium expression level of DA Rac1 versus control ([4]; ~27 h post-transfection, 5 μg/mL AF488-labeled Trf 5 min, medium gate, N = 3, n = 4): slightly more |
| dextran | – | – | ~8 times | did not increase | little or no internalization | induced | low | unaffected | – | did not alter | – | reduction of uptake in cells expressing DA RhoA ([4]; ~30 h post-transfection with RhoA Q63L, 125 μg/ml AF647-labelled dextran 10 kDa 1 h, n = 4): up to 50% |
